Binding and stoichiometry N data for two substances are collected here from article PMC11404848, “Stenotrophomonas maltophilia uses a c-di-GMP module to sense the mammalian body temperature during infection” (PLOS Pathogens, 2024).

The test system of data set [1] is T1, BtsR (Stenotrophomonas maltophilia CGMCC 1.1788), ORF:ddddda88.
T1 sequence: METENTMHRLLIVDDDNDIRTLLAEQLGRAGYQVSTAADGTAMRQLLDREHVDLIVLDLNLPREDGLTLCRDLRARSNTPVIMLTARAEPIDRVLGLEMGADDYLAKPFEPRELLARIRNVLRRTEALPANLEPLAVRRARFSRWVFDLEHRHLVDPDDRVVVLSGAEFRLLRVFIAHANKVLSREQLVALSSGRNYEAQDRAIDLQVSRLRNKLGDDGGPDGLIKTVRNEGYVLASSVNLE
As to the kind of experiment: EMSA.

In data set [2] the target is BtsD^ΔSP (Stenotrophomonas maltophilia CGMCC 1.1788). Description: native gel or EMSA; purified BtsD^ΔSP in 2 mM HEPES, 20 mM K2HPO4, pH 7.9, 2 h at 28°C or 37°C, directly or after a gradual 30-min upshift from 0°C; native gel; fewer tetramers at 37°C.

On to “CCGGTGAGGTTCGAAAAGCGGGTTCTGGTAGTGCCGGCCGCTGGCCGGCAACCCGACCTTCGCTGATTGCCGGCCAGCGGCCGGCACTACCATGCCGCTCTTGCTCCCTTTCACGCATCCCCCCCCCCCGCCCCTTGACCTCAACCAATGTTGAGGTGCGATAACAGTCTCCCCACGGCCAGCCCTCTGGCCTTCCCCACGGAGATTGCTTCA (double strand) [sod1-3 promoter probe]”, for which, in data set [1], the binding result is reported as “binds”.
Regarding BtsD^ΔSP (enzyme), the stoichiometry N in data set [2] came out at 4.
